Assay results: the supplement of paper PMC9112550, “Optimization of the antimicrobial peptide Bac7 by deep mutational scanning” (BMC Biology, 2022)

Tested on: Escherichia coli TOP10
Experiment: shrunken log2 fold change of peptide-encoding DNA abundance (4.5 h post-induction vs induction); higher = less antimicrobial activity (less host growth inhibition)
Details: time post-induction: 4.5 h; library: site-saturation at positions 5, 18, 19, 20
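Further: peptides expressed intracellularly from a pBAD plasmid library in pooled LB shake-flask culture, induced with 0.3% L-arabinose, DNA abundance read by NGS, three biological replicates, DESeq2 with apeglm shrinkage.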

| Sequence | shrunken log2 fold change |
| --- | --- |
| RRIRSRPPRLPRPRPRPYGSPRP | -0.0102 |
| RRIRSRPPRLPRPRPRPYIGPRP | -0.121 |
| RRIRSRPPRLPRPRPRPYLEPRP | -0.118 |
| RRIRSRPPRLPRPRPRPYNFPRP | -0.36 |
| RRIRSRPPRLPRPRPRPYNPPRP | -0.953 |
| RRIRSRPPRLPRPRPRPYNWPRP | -0.0406 |
| RRIRSRPPRLPRPRPRPYPKPRP | -0.119 |
| RRIRSRPPRLPRPRPRPYQSPRP | 0.0187 |
| RRIRSRPPRLPRPRPRPYRIPRP | 0.123 |
| RRIRSRPPRLPRPRPRPYSGPRP | -0.328 |
| RRIRSRPPRLPRPRPRPYTCPRP | -0.039 |
| RRIRSRPPRLPRPRPRPYVCPRP | -0.414 |
| RRIRSRPPRLPRPRPRPYYNPRP | -0.906 |
| RRIRTRPPRLPRPRPRPACNPRP | 0.0894 |
| RRIRTRPPRLPRPRPRPACVPRP | 0.235 |
| RRIRTRPPRLPRPRPRPACWPRP | 0.281 |
| RRIRTRPPRLPRPRPRPADEPRP | -0.0108 |
| RRIRTRPPRLPRPRPRPAFIPRP | -0.512 |
| RRIRTRPPRLPRPRPRPAGYPRP | 0.138 |
| RRIRTRPPRLPRPRPRPAHPPRP | 0.396 |
| RRIRTRPPRLPRPRPRPALAPRP | 0.425 |
| RRIRTRPPRLPRPRPRPALNPRP | -0.0937 |
| RRIRTRPPRLPRPRPRPALTPRP | 0.251 |
| RRIRTRPPRLPRPRPRPAPIPRP | 0.0613 |
| RRIRTRPPRLPRPRPRPAPPPRP | 0.525 |

| Sequence | shrunken log2 fold change |
| --- | --- |
| RRIRTRPPRLPRPRPRPAPRPRP | 1.39 |
| RRIRTRPPRLPRPRPRPAQPPRP | 0.00354 |
| RRIRTRPPRLPRPRPRPAQVPRP | -0.112 |
| RRIRTRPPRLPRPRPRPARGPRP | 0.407 |
| RRIRTRPPRLPRPRPRPARLPRP | 0.215 |
| RRIRTRPPRLPRPRPRPARMPRP | 0.127 |
| RRIRTRPPRLPRPRPRPASCPRP | 0.066 |
| RRIRTRPPRLPRPRPRPASLPRP | 0.105 |
| RRIRTRPPRLPRPRPRPASVPRP | 0.00118 |
| RRIRTRPPRLPRPRPRPATMPRP | -0.0723 |
| RRIRTRPPRLPRPRPRPAVLPRP | 0.153 |
| RRIRTRPPRLPRPRPRPAVRPRP | 0.203 |
| RRIRTRPPRLPRPRPRPAYWPRP | -0.017 |
| RRIRTRPPRLPRPRPRPCANPRP | -0.148 |
| RRIRTRPPRLPRPRPRPCAPPRP | -0.142 |
| RRIRTRPPRLPRPRPRPCAQPRP | -0.05 |
| RRIRTRPPRLPRPRPRPCCCPRP | 0.276 |
| RRIRTRPPRLPRPRPRPCCDPRP | -0.151 |
| RRIRTRPPRLPRPRPRPCDLPRP | 0.0183 |
| RRIRTRPPRLPRPRPRPCDQPRP | -0.252 |
| RRIRTRPPRLPRPRPRPCEDPRP | -0.0385 |
| RRIRTRPPRLPRPRPRPCFNPRP | -0.667 |
| RRIRTRPPRLPRPRPRPCFWPRP | 0.0653 |
| RRIRTRPPRLPRPRPRPCGHPRP | -0.14 |
| RRIRTRPPRLPRPRPRPCGSPRP | 0.00855 |

| Sequence | shrunken log2 fold change |
| --- | --- |
| RRIRTRPPRLPRPRPRPCHIPRP | -0.292 |
| RRIRTRPPRLPRPRPRPCILPRP | -0.831 |
| RRIRTRPPRLPRPRPRPCKFPRP | -0.298 |
| RRIRTRPPRLPRPRPRPCKPPRP | -0.996 |
| RRIRTRPPRLPRPRPRPCKSPRP | 0.075 |
| RRIRTRPPRLPRPRPRPCLMPRP | -0.15 |
| RRIRTRPPRLPRPRPRPCLWPRP | -0.0838 |
| RRIRTRPPRLPRPRPRPCMKPRP | -0.332 |
| RRIRTRPPRLPRPRPRPCMVPRP | -0.576 |
| RRIRTRPPRLPRPRPRPCPPPRP | -0.143 |
| RRIRTRPPRLPRPRPRPCTAPRP | -0.0896 |
| RRIRTRPPRLPRPRPRPCTFPRP | -0.241 |
| RRIRTRPPRLPRPRPRPCWNPRP | 0.00718 |
| RRIRTRPPRLPRPRPRPCYAPRP | -0.215 |
| RRIRTRPPRLPRPRPRPCYQPRP | -0.335 |
| RRIRTRPPRLPRPRPRPDCKPRP | -0.126 |
| RRIRTRPPRLPRPRPRPDDPPRP | -0.00805 |
| RRIRTRPPRLPRPRPRPDHKPRP | -0.117 |
| RRIRTRPPRLPRPRPRPDNQPRP | -0.337 |
| RRIRTRPPRLPRPRPRPDPNPRP | 0.0586 |
| RRIRTRPPRLPRPRPRPDQNPRP | 0.0691 |
| RRIRTRPPRLPRPRPRPDSNPRP | 0.0255 |
| RRIRTRPPRLPRPRPRPDSWPRP | -0.595 |
| RRIRTRPPRLPRPRPRPDTDPRP | -0.138 |
| RRIRTRPPRLPRPRPRPDTTPRP | -0.0469 |
